From patent publication US20250320302A1

Target: Spike protein of SARS-CoV-2 (isolate USA-WA1/2020) (SARS-CoV-2) (UniProt P0DTC2)
Test: cell-based or functional assay

## S309 (antibody)
  neutralization EC50 (viability of Vero E6 cells by CellTiter-Glo, 72 h after infection): 858 ng/mL
